From paper PMC6631453, “Set-Up and Validation of a High Throughput Screening Method for Human Monoacylglycerol Lipase (MAGL) Based on a New Red Fluorescent Probe” (Molecules, 2019) come the findings set out here.

Series [1] concerns the target T1, human recombinant monoacylglycerol lipase (hMAGL) (Homo sapiens, UniProt Q99685).
T1 construct: gene MGLL
T1 sequence (Q99685 1-303): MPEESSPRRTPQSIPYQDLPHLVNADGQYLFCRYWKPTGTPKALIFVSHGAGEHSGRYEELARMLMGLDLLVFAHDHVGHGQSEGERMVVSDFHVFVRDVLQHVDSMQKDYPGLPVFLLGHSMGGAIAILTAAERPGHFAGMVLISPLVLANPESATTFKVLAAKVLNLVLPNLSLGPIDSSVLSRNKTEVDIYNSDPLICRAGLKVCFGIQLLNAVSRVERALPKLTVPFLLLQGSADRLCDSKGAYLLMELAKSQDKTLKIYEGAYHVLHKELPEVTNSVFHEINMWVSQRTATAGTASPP
The series is described as follows: fluorogenic hydrolysis at […], normalized to 1c. The class given is biochemical.

The target of series [2] is T1, human recombinant monoacylglycerol lipase (hMAGL). Nature of the series: fluorogenic assay with substrate 1c, […] min pre-incubation. The class given is biochemical.
Substrate in series [3]: CCCCC(CC)C(=O)Oc1ccc2nc3ccc(=O)cc-3oc2c1
Nature of the series: fluorogenic hydrolysis kinetics (Km), low Vmax. The class given is biochemical, Homo sapiens.

Substrate in series [4]: CCCCC(C)C(=O)Oc1ccc2nc3ccc(=O)cc-3oc2c1
The series is described as follows: fluorogenic hydrolysis kinetics (Km). The class given is biochemical, Homo sapiens.

Substrate in series [5]: CCCCCCCC/C=C\CCCCCCCC(=O)Oc1ccc2nc3ccc(=O)cc-3oc2c1
The series is described as follows: fluorogenic hydrolysis kinetics (Km). The class given is biochemical, Homo sapiens.

Substrate in series [6]: CCCCCCCCCCCC(=O)Oc1ccc2nc3ccc(=O)cc-3oc2c1
Nature of the series: fluorogenic hydrolysis kinetics (Km). The class given is biochemical, Homo sapiens.

Substrate in series [7]: CCCCCCC(CCCC)C(=O)Oc1ccc2nc3ccc(=O)cc-3oc2c1
Nature of the series: fluorogenic hydrolysis kinetics (Km), very low Vmax. The class given is biochemical, Homo sapiens.

Substrate in the series “purified protein”: CCCCCCCC(=O)Oc1ccc2nc3ccc(=O)cc-3oc2c1
The series is described as follows: purified protein. The class given is biochemical, Homo sapiens.

In the case of `CCCCC/C=C\C/C=C\C/C=C\C/C=C\CCCC(=O)Oc1ccc2nc3ccc(=O)cc-3oc2c1` [1g, 7-hydroxyresorufinyl arachidonate], in series [1], the “fluorogenic hydrolysis at 5 μM, normalized to 1c” value is listed as “Normalized hydrolysis of different substrates by hMAGL”.
For the molecule `O=C(Nc1cccc(-c2ccccc2)c1)OC1CCCCC1` [URB602], the IC50 in series [2] was found to be 8.1 µM.

B1: human recombinant monoacylglycerol lipase (hMAGL) (Homo sapiens) (protein)
chain: MPEESSPRRTPQSIPYQDLPHLVNADGQYLFCRYWKPTGTPKALIFVSHGAGEHSGRYEELARMLMGLDLLVFAHDHVGHGQSEGERMVVSDFHVFVRDVLQHVDSMQKDYPGLPVFLLGHSMGGAIAILTAAERPGHFAGMVLISPLVLANPESATTFKVLAAKVLNLVLPNLSLGPIDSSVLSRNKTEVDIYNSDPLICRAGLKVCFGIQLLNAVSRVERALPKLTVPFLLLQGSADRLCDSKGAYLLMELAKSQDKTLKIYEGAYHVLHKELPEVTNSVFHEINMWVSQRTATAGTASPP
Take B1: the Km in series [3] was 2.8 µM; in series [4], 1.09 µM; in series [5] it was 0.42 µM; in series [6], 0.31 µM; in series [7], 1.1 µM; in “purified protein”, 0.66 µM. Besides, the Vmax stood at 0.0013 µmol/min/mg in series [3]; 0.033 µmol/min/mg in series [4]; 0.013 µmol/min/mg in series [5]; 0.024 µmol/min/mg in series [6]; 0.00067 µmol/min/mg in series [7]; 0.106 µmol/min/mg in “purified protein” (catalytic active site near Ser122 (docking only)).

As usually defined, the IC50 is the point on the concentration scale where inhibition reaches its midpoint. One may read the Km as the substrate concentration at which the rate is half of its maximum. A word on the Vmax: it is the rate approached at saturating substrate.
